# Experimental data reported in patent US20250049896A1 (Regeneron, published 2025).
# Target: T1, Hmm-hTFRC (REGN2431), monomeric human transferrin receptor ectodomain with N-terminal hexahistidine-myc-myc … (human, UniProt P02786 89-760)
# T1 construct: also called hmm.hTfR(C89-F763); His-myc-myc-hTFRC ecto
# Assay: blocking ELISA, supernatant; Hmm-hTFRC binding to immobilized human holo-Tf
# Experimental: In the blocking assay, the anti-human Transferrin goat IgG polyclonal antibody (anti-hTf pAb) was passively absorbed at a concentration of 2 micrograms/mL in PBS on a 96-well microtiter plate overnight at 4° C. […] To the same plate, human holo-Tf was then added at a concentration of 1 micrograms/mL in PBS+0.5% BSA for 2 hours at room temperature. […] After a 1-hour incubation, the mixtures were transferred to the human holo-Tf microtiter plates. […] The plates were developed using TMB substrate solution according to the manufacturer's recommended procedure and absorbance at 450 nm was measured on a Victor™ Multilabel Plate Reader.
# The ability of the anti-TfR antibody to block human TFRC binding to human holo-Tf was evaluated using an ELISA-based blocking assay.
# T1 sequence (P02786 other isoform, or with tags, fused parts or gaps): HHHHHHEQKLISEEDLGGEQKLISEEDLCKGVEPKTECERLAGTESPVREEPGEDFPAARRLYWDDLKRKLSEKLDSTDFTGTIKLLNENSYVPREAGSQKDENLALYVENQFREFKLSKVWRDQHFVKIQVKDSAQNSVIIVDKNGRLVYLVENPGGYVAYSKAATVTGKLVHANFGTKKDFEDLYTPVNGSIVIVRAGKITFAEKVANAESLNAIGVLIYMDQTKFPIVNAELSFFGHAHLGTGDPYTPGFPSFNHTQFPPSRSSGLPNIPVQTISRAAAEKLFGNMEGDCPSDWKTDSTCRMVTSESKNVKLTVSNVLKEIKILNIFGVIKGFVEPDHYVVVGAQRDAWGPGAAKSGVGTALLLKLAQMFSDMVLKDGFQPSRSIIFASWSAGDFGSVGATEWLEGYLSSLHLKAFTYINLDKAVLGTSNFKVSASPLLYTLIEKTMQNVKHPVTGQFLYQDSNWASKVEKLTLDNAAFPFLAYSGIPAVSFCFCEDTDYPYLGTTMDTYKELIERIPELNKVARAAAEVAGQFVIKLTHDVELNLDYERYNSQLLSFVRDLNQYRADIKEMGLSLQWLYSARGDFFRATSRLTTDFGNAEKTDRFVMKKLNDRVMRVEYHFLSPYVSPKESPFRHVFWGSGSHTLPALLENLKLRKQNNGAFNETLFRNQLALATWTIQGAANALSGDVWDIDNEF
row,Binder,% Blocking [%]
1,"12816B Fab (Fab, V domains shown, CHO supernatant) VH: QVQLVESGGGLVKPGGSLRLSCAASGFTFSDYYMNWIRQAPGKGLEWVSYISSSGTTIYYADSVKGRFTISRDNAKKSLYLEMNSLRAEDTAVYYCAREGYGNDYYYYGIDVWGQGTTVTVSS VL: not shown",14
2,12808B scFv (VH-VK) (scFv) QLQLQESGPGLVKPSETLSLTCTVSGESISSNTYYWGWIRQPPGKGLEWIGSIDYSGTTNYNPSLKSRVTISVDTSRNHFSLRLRSVTAADTAVYYCAREWGNYGYYYGMDVWGQGTTVTVSSDIQMTQSPSSLSASVGDRVTINCRASQGIRNDLGWYQQKPGKAPKRLIYAASSLQSGVPLRFSGSGSGTEFTLTINNLQPEDFATYYCLSHNSYPWTFGQGTKVEIK,19
3,"12834B Fab (Fab, V domains shown, CHO supernatant) VH: QVQLVQSGAEVKKPGASVKVSCKASGYTFTSYGISWVRQAPGQGLEWMGWISVYHGNTNYAQKFQGRVTMTTDTSTSTAYMELRSLRSDDTAVYYCAREGYYDFWSGYYPFDYWGQGTLVTVSS VL: not shown",-2
4,"12808B Fab (Fab, V domains shown, CHO supernatant) VH: QLQLQESGPGLVKPSETLSLTCTVSGESISSNTYYWGWIRQPPGKGLEWIGSIDYSGTTNYNPSLKSRVTISVDTSRNHFSLRLRSVTAADTAVYYCAREWGNYGYYYGMDVWGQGTTVTVSS VL: DIQMTQSPSSLSASVGDRVTINCRASQGIRNDLGWYQQKPGKAPKRLIYAASSLQSGVPLRFSGSGSGTEFTLTINNLQPEDFATYYCLSHNSYPWTFGQGTKVEIKR",16
5,"12802B scFv (VK-VH) (scFv, CHO supernatant; Vk-3xG4S-Vh) scFv: EIVMTQSPATLSVSPGERATLSCRASQSVSINLAWYQQKPGQAPRLLIFVASTRATGIPARFSGSGSGTEFTLTISSLQSEDFATYYCQQYDIWPYTFGQGTKLEIKGGGGSGGGGSGGGGSQVQLVESGGGLVKPGGSLRLSCAASGFTFSDYFMSWIRQAPGKGLEWVSYISSTGSTINYADSVKGRFTISRDNVKNSLYLQMTSLRVEDTAVYYCTRDNWNYEYWGQGTLVTVSS",17
6,"12839B Fab (Fab, V domains shown, CHO supernatant) VH: QVQLVESGGGVVQPGRSLRLSCAASGFPFSNYVMYWVRQAPGKGLEWVALIFFDGKKNYHADSVKGRFTITRDNSKNMLYLQMNSLRPEDAAVYYCAKIHCPNGVCYKGYYGMDVWGQGTTVTVSS VL: not shown",13
7,"12812B scFv (VK-VH) (scFv, CHO supernatant; Vk-3xG4S-Vh) scFv: DIQMTQSPPSVSASVGDRVTITCRASQGISSWLAWYQQKPGKAPKLLIYAASSLQSGVPSRFSGSGSGTDFTLTISSLQPEDFATYYCQQANSFPRTFGQGTKVEIKGGGGSGGGGSGGGGSQVQLVQSGAEVKKPGSSVRVSCKASRGTFSSYAISWVRQAPGQGLEWMGGIIPIFGTANYAQKFLARVTITADESTSTAYMELSSLRSEDTAVYYCAREKGWNYFDYWGQGTLVTVSS",12
8,"12802B Fab (Fab, V domains shown, CHO supernatant) VH: QVQLVESGGGLVKPGGSLRLSCAASGFTFSDYFMSWIRQAPGKGLEWVSYISSTGSTINYADSVKGRFTISRDNVKNSLYLQMTSLRVEDTAVYYCTRDNWNYEYWGQGTLVTVSS VL: EIVMTQSPATLSVSPGERATLSCRASQSVSINLAWYQQKPGQAPRLLIFVASTRATGIPARFSGSGSGTEFTLTISSLQSEDFATYYCQQYDIWPYTFGQGTKLEIKR",15
9,"12841B Fab (Fab, V domains shown, CHO supernatant; also called H1H12841B) VH: EVQLVESGGGLVQPGGSLRLSCAASGFTFSNYWMNWVRQAPGKGLEWVANIKEDGGKKLYVDSVKGRFTISRDNAKNSLFLQMNSLRAEDTAVYYCAREDTTLVVDYYYYGMDVWGQGTTVTVSS VL: not shown",29
10,"12808B scFv (VK-VH) (scFv, CHO supernatant; Vk-3xG4S-Vh) scFv: DIQMTQSPSSLSASVGDRVTINCRASQGIRNDLGWYQQKPGKAPKRLIYAASSLQSGVPLRFSGSGSGTEFTLTINNLQPEDFATYYCLSHNSYPWTFGQGTKVEIKGGGGSGGGGSGGGGSQLQLQESGPGLVKPSETLSLTCTVSGESISSNTYYWGWIRQPPGKGLEWIGSIDYSGTTNYNPSLKSRVTISVDTSRNHFSLRLRSVTAADTAVYYCAREWGNYGYYYGMDVWGQGTTVTVSS",18
11,"12833B Fab (Fab, V domains shown, CHO supernatant) VH: QVQLVESGGGVVQPGRSLRLSCAASGFTFSSFGMHWVRQAPGKGLEWVIFISYDGSDKYYADSVKGRFAISRDSSKNTLYLQMNSLRAEDTAVYYCAKENGILTDSYGMDVWGQGTTVTVSS VL: not shown",64
12,"12835B Fab (Fab, V domains shown, CHO supernatant) VH: EVQLVESGGGLIQPGGSLRLSCEASGFTFRNYEMNWVRQAPGKGLEWVSYISSSGNMKDYAESVKGRFTISRDNVKNSLQLQMNSLRVEDTAVYYCARDEFPYGMDVWGQGTTVTVSS VL: not shown",78
13,"12812B Fab (Fab, V domains shown, CHO supernatant) VH: QVQLVQSGAEVKKPGSSVRVSCKASRGTFSSYAISWVRQAPGQGLEWMGGIIPIFGTANYAQKFLARVTITADESTSTAYMELSSLRSEDTAVYYCAREKGWNYFDYWGQGTLVTVSS VL: DIQMTQSPPSVSASVGDRVTITCRASQGISSWLAWYQQKPGKAPKLLIYAASSLQSGVPSRFSGSGSGTDFTLTISSLQPEDFATYYCQQANSFPRTFGQGTKVEIKR",14

# The remaining lines, values ahead:
row,% Blocking [%],Binder
1,-1,"31874B scFv (VK-VH) (scFv, CHO supernatant; Vk-3xG4S-Vh) scFv: DIQMTQSPSSLSASVGDRVTITCRASQGISNYLAWYQQKPGKVPNLLIYAASTLQSGVPSRFSGSGSGTDFTLTISSLQPEDVATYYCQKYNSAPLTFGGGTKVEIKGGGGSGGGGSGGGGSEVQLVESGGGLVQPGGSLRLSCAASGFAFSSYAMTWVRQAPGKGLEWVSVISGTGGSTYYADSVKGRFTISRDNSKNTLYLQMNSLRAEDTAVYYCAKGGAARRMEYFQYWGQGTLVTVSS"
2,7,"31863B scFv (VK-VH) (scFv, CHO supernatant; Vk-3xG4S-Vh) scFv: DIQMTQSPSSLSASIGDRVTITCRASQGISNYLAWYQQKPGKVPKLLIYAASTLQSGVPSRFSGSGSGTDFTLTISSLQPEDVATYYCQNHNSVPLTFGGGTKVEIKGGGGSGGGGSGGGGSEVQLVESGGGLVQPGGSLRLSCAASGFTFNSYAMTWVRQAPGKGLEWVSFIGGSTGNTYYAGSVKGRFTISSDNSKKTLYLQMNSLRAEDTAVYYCAKGGAARRMEYFQHWGQGTLVTVSS"
3,13,"12848B Fab (Fab, V domains shown, CHO supernatant) VH: EVQLVESGGGLVQPGRSLTLSCAASGFTFDNFGMHWVRQGPGKGLEWVSGLTWNSGVIGYADSVKGRFTISRDNAKNSLYLQMNSLRPEDTALYYCAKDIRNYGPFDYWGQGTLVTVSS VL: not shown"
4,24,"31863B Fab (Fab, V domains shown, CHO supernatant) VH: EVQLVESGGGLVQPGGSLRLSCAASGFTFNSYAMTWVRQAPGKGLEWVSFIGGSTGNTYYAGSVKGRFTISSDNSKKTLYLQMNSLRAEDTAVYYCAKGGAARRMEYFQHWGQGTLVTVSS VL: DIQMTQSPSSLSASIGDRVTITCRASQGISNYLAWYQQKPGKVPKLLIYAASTLQSGVPSRFSGSGSGTDFTLTISSLQPEDVATYYCQNHNSVPLTFGGGTKVEIKR"
5,16,"31874B Fab (Fab, V domains shown, CHO supernatant) VH: EVQLVESGGGLVQPGGSLRLSCAASGFAFSSYAMTWVRQAPGKGLEWVSVISGTGGSTYYADSVKGRFTISRDNSKNTLYLQMNSLRAEDTAVYYCAKGGAARRMEYFQYWGQGTLVTVSS VL: DIQMTQSPSSLSASVGDRVTITCRASQGISNYLAWYQQKPGKVPNLLIYAASTLQSGVPSRFSGSGSGTDFTLTISSLQPEDVATYYCQKYNSAPLTFGGGTKVEIKR"
6,20,"12844B Fab (Fab, V domains shown, CHO supernatant) VH: EVQLVESGGSVVRPGGSLRLSCEASGFTFDDYGMSWVRQDPGKGLEWVSGINWNGDRTNYADSVKGRFIISRDNAKNSVYLQMNSLRAEDSALYHCARDQGLGVAATLDYWGQGTLVTVSS VL: not shown"
7,11,"12845B Fab (Fab, V domains shown, CHO supernatant) VH: EVQLVESGGGLVQPGGSLRLSCAASGFTVSNYEMNWVRQAPGKGLEWVSYISSSTSNIYYADSVKGRFTISRDNAENSLYLQMNSLRVEDTAVYYCVRDGIVVVPVGRGYYYYGLDVWGQGTTVTVSS VL: not shown"
8,14,31874B scFv (VH-VK) (scFv) EVQLVESGGGLVQPGGSLRLSCAASGFAFSSYAMTWVRQAPGKGLEWVSVISGTGGSTYYADSVKGRFTISRDNSKNTLYLQMNSLRAEDTAVYYCAKGGAARRMEYFQYWGQGTLVTVSSDIQMTQSPSSLSASVGDRVTITCRASQGISNYLAWYQQKPGKVPNLLIYAASTLQSGVPSRFSGSGSGTDFTLTISSLQPEDVATYYCQKYNSAPLTFGGGTKVEIK
9,3,"12847B Fab (Fab, V domains shown, CHO supernatant) VH: EVQLVESGGGLVQPGRSLRLSCAASGFTFDDYAMNWVRQAPGKGLEWVSGISWSSGSMDYADSVKGRFTISRDNAKNSLYLQMNSLRTEDTALYYCAKAREVGDYYGMDVWGQGTTVTVSS VL: not shown"
10,13,31863B scFv (VH-VK) (scFv) EVQLVESGGGLVQPGGSLRLSCAASGFTFNSYAMTWVRQAPGKGLEWVSFIGGSTGNTYYAGSVKGRFTISSDNSKKTLYLQMNSLRAEDTAVYYCAKGGAARRMEYFQHWGQGTLVTVSSDIQMTQSPSSLSASIGDRVTITCRASQGISNYLAWYQQKPGKVPKLLIYAASTLQSGVPSRFSGSGSGTDFTLTISSLQPEDVATYYCQNHNSVPLTFGGGTKVEIK
11,10,"12843B Fab (Fab, V domains shown, CHO supernatant) VH: EVQLVESGGGLVQPGGSLRLSCAASGFTFNIFEMNWVRQAPGKGLEWISYISSRGTTTYYADSVRGRFTISRDNAKNSLYLQMNSLRAEDTAVYYCARDYEATIPFDFWGQGTLVTVSS VL: not shown"
